From article PMC4551322 (Molecular Biology of the Cell, 2015)

Target: the molecule itself
Experiment: velocity sedimentation assay

B1: Drp1 K38A (enzyme)
chain: MEALIPVINKLQDVFNTVGADIIQLPQIVVVGTQSSGASSVLESLVGRDLLPRGTGIVTRRPLILQLVHVSQEDKRKTTGEENGVEAEEWGKFLHTKNKLYTDFDEIRQEIENETERISGNNKGVSPEPIHLKIFSPNVVNLTLVDLPGMTKVPVGDQPKDIELQIRELILRFISNPNSIILAVTAANTDMATSEALKISREVDPDGRRTLAVITKLDLMDAGTDAMDVLMGRVIPVKLGIIGVVNRSQLDINNKKSVTDSIRDEYAFLQKKYPSLANRNGTKYLARTLNRLLMHHIRDCLPELKTRINVLAAQYQSLLNSYGEPVDDKSATLLQLITKFATEYCNTIEGTAKYIETSELCGGARICYIFHETFGRTLESVDPLGGLNTIDILTAIRNATGPRPALFVPEVSFELLVKRQIKRLEEPSLRCVELVHEEMQRIIQHCSNYSTQELLRFPKLHDAIVEVVTCLLRKRLPVTNEMVHNLVAIELAYINTKHPDFADACGLMNNNIEEQRRNRLARELPSAVSRDKVASGGGGVGDGVQEPTTGNWRGMLKTSKAEELLAEEKSKPIPIMPASPQKGHAVNLLDVPVPVARKLSAREQRDCEVIERLIKSYFLIVRKNIQDSVPKAVMHFLVNHVKDTLQSELVGQLYKSSLLDDLLTESEDMAQRRKEAADMLKALQGASQIIAEIRETHLW
binding result: binds
